These results are taken from patent US20240383984A1 (Genentech, published 2024).

For test [1], the target named is T1, human FcRH3 (BIACORE analyte) (human, UniProt Q96P31 18-573, limits assumed).
T1 construct: also called huFcRH3
T1 sequence (looked up): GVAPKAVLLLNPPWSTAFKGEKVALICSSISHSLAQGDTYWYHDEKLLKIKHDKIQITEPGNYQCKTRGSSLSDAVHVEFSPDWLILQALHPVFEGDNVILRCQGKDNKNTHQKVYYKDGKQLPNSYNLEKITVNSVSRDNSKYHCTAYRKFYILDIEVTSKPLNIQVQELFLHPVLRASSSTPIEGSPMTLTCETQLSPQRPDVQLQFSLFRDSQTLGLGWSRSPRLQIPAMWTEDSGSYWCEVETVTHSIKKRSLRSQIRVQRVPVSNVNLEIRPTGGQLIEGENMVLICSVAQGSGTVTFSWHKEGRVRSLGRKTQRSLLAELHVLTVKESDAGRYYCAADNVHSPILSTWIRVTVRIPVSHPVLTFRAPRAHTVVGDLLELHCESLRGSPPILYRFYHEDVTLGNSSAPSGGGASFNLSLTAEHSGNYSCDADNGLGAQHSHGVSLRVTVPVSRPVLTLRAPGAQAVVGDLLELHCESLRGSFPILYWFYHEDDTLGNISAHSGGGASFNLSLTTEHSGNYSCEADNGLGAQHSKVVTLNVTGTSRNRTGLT
As to the kind of experiment: BIACORE.

Test [2] addresses T2, human FcRH5 (full-length, on cells) (human, UniProt Q96RD9 16-977).
T2 construct: Transfected SVT2/293 cells or endogenous expression (MOLP-2, primary cells); also called SVT2-FcRH5; SVT2-huFcRH5
T2 sequence: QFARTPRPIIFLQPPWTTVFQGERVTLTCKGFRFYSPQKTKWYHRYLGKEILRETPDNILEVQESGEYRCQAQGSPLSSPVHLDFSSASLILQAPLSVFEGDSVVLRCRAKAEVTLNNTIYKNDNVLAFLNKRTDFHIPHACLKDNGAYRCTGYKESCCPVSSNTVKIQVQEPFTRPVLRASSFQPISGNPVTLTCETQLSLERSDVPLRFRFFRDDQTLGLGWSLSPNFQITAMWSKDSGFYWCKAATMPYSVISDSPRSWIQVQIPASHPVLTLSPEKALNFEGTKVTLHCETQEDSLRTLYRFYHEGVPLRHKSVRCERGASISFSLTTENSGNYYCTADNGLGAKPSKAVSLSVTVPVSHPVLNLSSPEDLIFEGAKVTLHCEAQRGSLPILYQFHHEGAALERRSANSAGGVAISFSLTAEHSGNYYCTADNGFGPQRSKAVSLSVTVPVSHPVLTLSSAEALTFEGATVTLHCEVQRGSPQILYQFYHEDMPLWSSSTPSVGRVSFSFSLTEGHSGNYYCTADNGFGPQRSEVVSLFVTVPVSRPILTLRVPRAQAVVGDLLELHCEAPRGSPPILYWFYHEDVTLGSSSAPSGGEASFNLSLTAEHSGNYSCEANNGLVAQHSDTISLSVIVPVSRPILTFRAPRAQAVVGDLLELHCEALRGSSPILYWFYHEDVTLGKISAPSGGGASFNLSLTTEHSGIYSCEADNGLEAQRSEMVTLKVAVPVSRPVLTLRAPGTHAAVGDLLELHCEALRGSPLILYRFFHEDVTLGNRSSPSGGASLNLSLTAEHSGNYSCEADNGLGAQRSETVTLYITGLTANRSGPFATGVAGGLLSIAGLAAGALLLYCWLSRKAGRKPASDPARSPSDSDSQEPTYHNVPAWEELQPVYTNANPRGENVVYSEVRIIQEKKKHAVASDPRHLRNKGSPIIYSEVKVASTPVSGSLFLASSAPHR
Briefly: FACS, SVT2 cells.

Test [3] deals with T3, human FcRH2 (full-length, on SVT2 cells) (human, UniProt Q96LA5 20-508).
T3 construct: whole, on cells; also called SVT2-FcRH2
T3 sequence (looked up): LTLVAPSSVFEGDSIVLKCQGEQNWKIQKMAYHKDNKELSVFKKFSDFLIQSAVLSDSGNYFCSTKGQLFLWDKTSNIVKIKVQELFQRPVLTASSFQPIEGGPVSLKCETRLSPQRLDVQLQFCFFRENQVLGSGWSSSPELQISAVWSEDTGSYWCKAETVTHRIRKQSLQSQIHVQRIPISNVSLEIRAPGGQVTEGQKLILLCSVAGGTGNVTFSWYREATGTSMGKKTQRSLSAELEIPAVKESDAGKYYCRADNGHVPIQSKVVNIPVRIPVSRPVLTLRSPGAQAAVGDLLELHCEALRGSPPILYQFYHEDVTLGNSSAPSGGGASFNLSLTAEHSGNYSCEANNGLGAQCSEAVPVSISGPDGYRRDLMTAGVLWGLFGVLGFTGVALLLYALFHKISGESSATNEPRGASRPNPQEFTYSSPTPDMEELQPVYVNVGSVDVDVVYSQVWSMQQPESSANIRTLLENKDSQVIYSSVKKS
Briefly: FACS, SVT2 cells.

For test [4], the target named is T4, human FcRH4 (full-length, on SVT2 cells) (human, UniProt Q96PJ5 20-515).
T4 construct: whole, on cells; also called SVT2-FcRH4
T4 sequence (looked up): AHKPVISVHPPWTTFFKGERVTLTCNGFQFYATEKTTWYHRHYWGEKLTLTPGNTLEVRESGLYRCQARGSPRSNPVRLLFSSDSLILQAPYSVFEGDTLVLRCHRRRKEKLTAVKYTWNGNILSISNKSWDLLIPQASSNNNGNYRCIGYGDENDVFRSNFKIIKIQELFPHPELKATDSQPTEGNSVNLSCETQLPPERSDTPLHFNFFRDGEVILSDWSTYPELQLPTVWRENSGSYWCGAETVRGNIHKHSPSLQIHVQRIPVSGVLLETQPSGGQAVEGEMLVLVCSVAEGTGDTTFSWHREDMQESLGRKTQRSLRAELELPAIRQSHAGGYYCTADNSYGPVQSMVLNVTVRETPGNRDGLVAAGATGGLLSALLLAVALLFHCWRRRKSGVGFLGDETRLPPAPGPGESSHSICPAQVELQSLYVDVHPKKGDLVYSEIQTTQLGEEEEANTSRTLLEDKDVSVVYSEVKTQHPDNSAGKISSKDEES
As to the kind of experiment: FACS, SVT2 cells.

For test [5], the target named is T5, Human E11-TM-ICD (E11 domain, transmembrane domain, and cytoplasmic domains of human FcRH5, on SVT2 cells) (human, UniProt Q96RD9 745-977).
T5 construct: On cells
T5 sequence: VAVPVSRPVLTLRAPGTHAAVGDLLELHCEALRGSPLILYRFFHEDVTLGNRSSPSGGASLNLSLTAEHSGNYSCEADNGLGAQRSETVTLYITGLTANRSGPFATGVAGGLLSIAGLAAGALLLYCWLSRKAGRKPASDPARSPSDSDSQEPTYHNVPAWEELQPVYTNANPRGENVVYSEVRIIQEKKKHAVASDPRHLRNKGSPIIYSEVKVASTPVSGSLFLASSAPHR
Briefly: FACS, SVT2 cells.

B1: hu1G7.v1.4/38E4.v1 TDB (bispecific antibody, V domains shown)
VH 1: EVQLVESGPGLVKPSETLSLTCTVSGFSLTRFGVHWVRQPPGKGLEWLGVIWRGGSTDYNAAFMSRLTISKDNSKNQVSLKLSSVTAADTAVYYCSNHYYGSSDYALDNWGQGTLVTVSS
VL 1: DIQMTQSPSSLSASVGDRVTITCKASQDVRNLVVWFQQKPGKAPKLLIYSGSYRYSGVPSRFSGSGSGTDFTLTISSLQPEDFATYYCQQHYSPPYTFGQGTKVEIK
VH 2: EVQLVQSGAEVKKPGASVKVSCKASGFTFTSYYIHWVRQAPGQGLEWIGWIYPENDNTKYNEKFKDRVTITADTSTSTAYLELSSLRSEDTAVYYCARDGYSRYYFDYWGQGTLVTVSS
VL 2: DIVMTQSPDSLAVSLGERATINCKSSQSLLNSRTRKNYLAWYQQKPGQSPKLLIYWTSTRKSGVPDRFSGSGSGTDFTLTISSLQAEDVAVYYCKQSFILRTFGQGTKVEIK
notes: knob-into-hole TDB; also called 1G7.v1.4 TDB; 1G7.v1.4 (TDB format)
In turn, B1 displayed a Kd in test [1] of approximately 80 nM.

B2: 1G7.v85/38E4.v1 TDB (bispecific antibody, V domains shown)
VH 1: EVQLVESGPGLVKPSETLSLTCTVSGFSLTRFGVHWVRQPPGKGLEWLGVIWRGGSTDYNAAFVSRLTISKDNSKNQVSLKLSSVTAADTAVYYCSNHYYGSSDYALDNWGQGTLVTVSS
VL 1: DIQMTQSPSSLSASVGDRVTITCKASQDVRNLVVWFQQKPGKAPKLLIYSGSYRYSGVPSRFSGSGSGTDFTLTISSLQPEDFATYYCQQHYSPPYTFGQGTKVEIK
VH 2: EVQLVQSGAEVKKPGASVKVSCKASGFTFTSYYIHWVRQAPGQGLEWIGWIYPENDNTKYNEKFKDRVTITADTSTSTAYLELSSLRSEDTAVYYCARDGYSRYYFDYWGQGTLVTVSS
VL 2: DIVMTQSPDSLAVSLGERATINCKSSQSLLNSRTRKNYLAWYQQKPGQSPKLLIYWTSTRKSGVPDRFSGSGSGTDFTLTISSLQAEDVAVYYCKQSFILRTFGQGTKVEIK
notes: knob-into-hole TDB; also called 1G7.v85 TDB; 1G7.v85 (TDB format)
As to B2, the Kd in test [1] was approximately 90 nM.

B3: 15G8 (antibody, mouse IgG2a, V domains shown)
VH: EVQLQQSGPELVKPGASVKMSCKASGYTFTNYVIHWMKQKPGQGLEWIGYISPYNDYTKYNEKFEGKATLTSDKSSNTAYMELSSLTSEDSAVYYCARRDYYGSSDYWGQGTTLTVSS
VL: QIVLTQSPAIMSASPGEKVTMTCSASSSVDYMHWYQQKSGTSPKKWIYDTSKLASGVPARFSGSGSGTSYSLTIGSMEAEDAATYYCQQWSSNPPTFGGGTKLEIK
notes: mouse mAb, Campaign C; recombinant murine IgG2a for SPR; also called mAb 15G8
In the case of B3, the binding result in test [2] was “binds”; in test [3], “no binding”; in test [4] it was “no binding”; in test [5] it was “binds”.

B4: 17B1 (antibody, mouse IgG2a, V domains shown)
VH: QVQLQQSGPELVRPGVSVKISCKGSGYTFTHYAMHWVKQSHTKSLEWIGMISSSSGNTNFNQKFMDKATMTVDKSSTTAYLELARLTFGDSAIYYCARWSYYALFDYWGQGTTVTVSS
VL: ENVLTQSPAIMSASPGEKVTMTCSADSSVDYIHWYQQKSNTSPKLWIYDTSKLASGVPGRFSGSGSGNSYSLTISSMEAEDFATYYCFQGSGYPLTFGSGTKLELK
notes: mouse mAb, Campaign C; recombinant murine IgG2a for SPR
For B4, the binding result is recorded as “binds” in test [2], “no binding” in test [3], “no binding” in test [4] and “binds” in test [5].
